The values that follow come from patent publication US20220235126A1.

The target of assay [1] is hTSLPR and hIL-7R on Baf3 cells (human) (UniProt Q9HC73). Kind of assay: cell-based or functional assay.
The target in a further assay is human FcRn-mmh (human) (UniProt P55899). Kind of assay: SPR, hFcRn.mmh captured, 25 C, pH 7.4; kinetics inconclusive. In general terms: Surface plasmon resonance follows binding to a sensor surface in real time, without labels.
Assay [2] deals with hTSLPR and hIL-7R on Baf3 cells (human) (UniProt Q9HC73).
For assay [3] the target is unchanged. The source holds these as a separate data set.

Chain of UniProt Q9HC73 (Q9HC73 23-371, chain 1 of 2): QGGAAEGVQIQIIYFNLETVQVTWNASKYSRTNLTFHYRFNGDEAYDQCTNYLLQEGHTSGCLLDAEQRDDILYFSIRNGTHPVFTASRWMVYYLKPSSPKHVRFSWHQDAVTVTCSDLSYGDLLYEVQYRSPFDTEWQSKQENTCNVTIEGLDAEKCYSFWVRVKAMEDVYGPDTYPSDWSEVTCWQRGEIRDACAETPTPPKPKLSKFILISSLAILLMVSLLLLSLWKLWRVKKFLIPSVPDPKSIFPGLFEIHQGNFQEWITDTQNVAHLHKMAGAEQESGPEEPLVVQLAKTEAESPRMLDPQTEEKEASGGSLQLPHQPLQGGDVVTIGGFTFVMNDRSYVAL
Chain of UniProt Q9HC73 (P16871 21-459, chain 2 of 2, further chain): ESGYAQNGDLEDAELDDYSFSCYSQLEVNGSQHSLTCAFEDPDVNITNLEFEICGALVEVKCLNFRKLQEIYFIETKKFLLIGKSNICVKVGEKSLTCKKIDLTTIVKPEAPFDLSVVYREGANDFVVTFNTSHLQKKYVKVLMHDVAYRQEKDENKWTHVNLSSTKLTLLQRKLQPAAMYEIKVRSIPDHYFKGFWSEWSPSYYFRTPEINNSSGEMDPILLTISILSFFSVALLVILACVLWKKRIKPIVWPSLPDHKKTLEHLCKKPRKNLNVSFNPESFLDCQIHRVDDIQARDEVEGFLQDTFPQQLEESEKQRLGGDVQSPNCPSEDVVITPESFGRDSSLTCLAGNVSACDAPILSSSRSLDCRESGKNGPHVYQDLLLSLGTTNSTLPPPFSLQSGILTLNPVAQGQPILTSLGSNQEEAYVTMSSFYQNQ
Chain of UniProt P55899 (P55899 24-297): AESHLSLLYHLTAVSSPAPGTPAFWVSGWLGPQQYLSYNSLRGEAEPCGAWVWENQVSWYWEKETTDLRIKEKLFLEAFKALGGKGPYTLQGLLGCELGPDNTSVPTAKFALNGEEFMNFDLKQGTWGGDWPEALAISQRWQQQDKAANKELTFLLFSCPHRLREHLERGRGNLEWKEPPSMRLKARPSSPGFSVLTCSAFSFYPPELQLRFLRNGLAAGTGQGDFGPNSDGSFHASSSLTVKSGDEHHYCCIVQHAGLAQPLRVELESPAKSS

“human TSLP (hTSLP) (from UniProt Q969D9 29-159) (ligand)” displayed a hTSLP EC50 [M], STAT3-Luciferase reporter assay in assay [1] of 4.35e-11 M.

The substance “REGN1945, anti-fel d 1 IgG4 isotype control (antibody)” showed a 5 uM mAb Bound (RU) with human FcRn-mmh (human) of 8 RU.

“REGN4009, recombinant hTSLP.mmh (from UniProt Q969D9 29-159) (ligand)” had an EC50, STAT3-luciferase dose response of hTSLP mmh in BAF3/hIL7R/hTSLPR/Stat3-Luc cells in assay [2] of 0.0613 nM. This substance also showed an EC50 of hTSLP mmh in the Stat3-Luc reporter assay (number only, curve not drawn) in assay [3] of 0.075 nM.

In turn, “REGN1932, anti-FelD1 IgG1 isotype control (antibody)” showed a 5 uM mAb Bound (RU) with human FcRn-mmh (human) of 9.1 RU.
